Substitutions are numbered along the chain they refer to. In names and notes the source's numbering stands.
T1: DmGS2 (Drosophila melanogaster, UniProt P20478)
T1 construct: gene Gs2; 367 residues per monomer modelled
T1 sequence (P20478 1-369): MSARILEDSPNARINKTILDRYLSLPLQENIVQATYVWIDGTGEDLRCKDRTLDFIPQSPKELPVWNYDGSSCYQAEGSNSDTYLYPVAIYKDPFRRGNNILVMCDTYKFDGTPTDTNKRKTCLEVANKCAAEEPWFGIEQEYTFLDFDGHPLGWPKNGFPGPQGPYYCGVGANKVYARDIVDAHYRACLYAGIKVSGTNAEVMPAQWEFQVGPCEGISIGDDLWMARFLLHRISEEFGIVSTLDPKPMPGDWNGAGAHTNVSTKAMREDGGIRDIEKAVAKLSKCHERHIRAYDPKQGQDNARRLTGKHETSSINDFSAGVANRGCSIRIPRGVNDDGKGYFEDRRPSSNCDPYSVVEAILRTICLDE

B1: DmGS2 (Drosophila melanogaster; P214A) (protein)
chain: T1 sequence (P20478 1-369) with P214A
notes: 367 residues per monomer modelled
B2: DmGS2 (Drosophila melanogaster; E311A) (protein)
chain: T1 sequence (P20478 1-369) with E311A
notes: as for B1
B3: Drosophila melanogaster glutamine synthetase 2 (DmGS2), wild type (enzyme, UniProt P20478 1-369, looked up)
chain: T1 sequence (P20478 1-369)
notes: Glutamine synthetase 2, cytoplasmic (DmGS2), Drosophila melanogaster; full-length cDNA of mature DmGS2, GenBank X52759; residues numbered to 369; 367 residues of each monomer seen in the crystal; Decamer of two stacked pentamers in the crystal (with ADP); pentamer and decamer in solution by AUC; No removal of the tags is described; also called WT DmGS2; WT; copies: 10

Tests used:
DmGS2 = molecular target: T1, DmGS2; test: X-ray crystal structure, […] Å; type: binding; settings: active site; crystallised with ATP and MgCl2, ADP found in all 10 monomers
purified protein [1] = substrate: NO; test: purified protein; type: biochemical, Drosophila melanogaster; settings: saturating glutamine, 3 mM MnCl2, 0.4 mM ADP, 20 mM potassium arsenate, 40 mM imidazole pH 7.9, 37 °C
purified protein [2] = substrate: NC(=O)CC[C@H](N)C(=O)O; test: purified protein; type: biochemical, Drosophila melanogaster; settings: saturating hydroxylamine, 3 mM MnCl2, 0.4 mM ADP, 20 mM potassium arsenate, 40 mM imidazole pH 7.9, 37 °C
purified protein [3] = substrate: N[C@@H](CCC(=O)O)C(=O)O; test: purified protein; type: biochemical, Drosophila melanogaster; settings: saturating NH4Cl, 12 mM ATP, 50 mM MgCl2, 50 mM imidazole-HCl pH 7.0, 37 °C
purified protein [4] = substrate: N; test: purified protein; settings: saturating glutamate, 12 mM ATP, 50 mM MgCl2, 50 mM imidazole-HCl pH 7.0, 37 °C
[5] = molecular target: the molecule itself; test: AUC; sedimentation velocity, 20 °C, samples 500 μL at 1.0 mg/mL, absorbance at 280 nm, SEDFIT85
[6] = molecular target: the molecule itself; test: crystal structure; DmGS2 with ADP bound; protein 12 mg/mL in 20 mM Tris-HCl pH 7.9, 150 mM NaCl, 5 mM MgCl2, 5 mM ATP, 1 mM sodium 2-mercaptoethanesulphonate; hanging-drop vapor diffusion; 2.12 Å

Molecule | X-ray crystal structure, 2.12 Å (DmGS2) | Km (purified protein [1]) | Vmax (purified protein [1]) | Km (purified protein [2]) | Vmax (purified protein [2]) | kcat (purified protein [2]) | kcat/Km (purified protein [2]) | Km (purified protein [3]) | Vmax (purified protein [3]) | kcat (purified protein [3]) | kcat/Km (purified protein [3]) | Km (purified protein [4]) | Vmax (purified protein [4]) | kcat (purified protein [4]) | kcat/Km (purified protein [4]) | stoichiometry N [5] | stoichiometry N [6]
Nc1ncnc2c1ncn2[C@@H]1O[C@H](COP(=O)(O)OP(=O)(O)O)[C@@H](O)[C@H]1O [ADP] | A structure was obtained for the DmGS2 decamer in complex with ADP |  |  |  |  |  |  |  |  |  |  |  |  |  |  |  | 
B1 |  | 1.5 ± 0.2 mM | 88 µM/min | 30.6 ± 6.1 mM | 150 µM/min | 0.5 ± 0.0333 s⁻¹ | 16.8 ± 2.33 M⁻¹ s⁻¹ | 6.8 ± 2.2 mM | 10.6 µM/min | 0.0355 ± 0.00183 s⁻¹ | 6.33 ± 2.17 M⁻¹ s⁻¹ | 0.11 ± 0.03 mM | 5.5 µM/min | 0.0183 s⁻¹ | 177 M⁻¹ s⁻¹ |  | 
B2 |  |  |  |  |  |  |  | 26.2 ± 2.2 mM | 5.5 µM/min | 0.0183 ± 0.00133 s⁻¹ | 0.7 ± 0.00833 M⁻¹ s⁻¹ |  |  |  |  |  | 
B3 |  | 2.0 ± 0.4 mM | 64 µM/min | 43.1 ± 9.7 mM | 120 µM/min | 0.4 ± 0.0333 s⁻¹ | 9.67 ± 1.33 M⁻¹ s⁻¹ | 5.9 ± 1.6 mM | 9.2 µM/min | 0.0307 ± 0.00133 s⁻¹ | 5.67 ± 1.33 M⁻¹ s⁻¹ | 0.47 ± 0.03 mM | 4.6 µM/min | 0.0153 s⁻¹ | 32.7 M⁻¹ s⁻¹ | 5 | 10
